Where a chain is given by its changes, count along the chain named. Names may count otherwise. Where two headings read alike, the source gives them in different places.
B1: HtrA3 S305A (enzyme)
chain: LHQLSSPRYKFNFIADVVEKIAPAVVHIELFLRHPLFGRNVPLSSGSGFIMSEAGLIITNAHVVSSNSAAPGRQQLKVQLQNGDSYEATIKDIDKKSDIATIKIHPKKKLPVLLLGHSADLRPGEFVVAIGSPFALQNTVTTGIVSTAQREGRELGLRDSDMDYIQTDAIINYGNAGGPLVNLDGEVIGINTLKVTAGISFAIPSDRITRFLTEFQDKQIKDWKKRFIGIRMRTITPSLVDELKASNPDFPEVSSGIYVQEVAPNSPSQRGGIQDGDIIVKVNGRPLVDSSELQEAVLTESPLLLEVRRGNDDLLFSIAPEVVM
B2: HtrA3 F142A (enzyme)
chain: B1 chain with F13A, A176S

Tests used:
SEC [1] = target: the molecule itself; assay: SEC
SEC [2] = target: the molecule itself; assay: SEC; remark: listed apart in the source

Row | Protein | stoichiometry N (SEC [1]) | stoichiometry N (SEC [2])
1 | B1 | 3 | –
2 | B2 | – | 3

Source: publication PMC6993860 (Biochemical Journal, 2020)
